From patent US8629107B2, “Genes and proteins associated with angiogenesis and uses thereof” (National Jewish Health, priority 2005, dated 2014)

Biological target: T1, Notch1 (Mus musculus, UniProt Q01705)
T1 construct: expressed in transfected cells; host or cells: human kidney 293T cells, transient transfection (LT-1 liposomes)
Experiment: Notch1 processing assay in human kidney 293T cells
Assay type: cell-based
Conditions: 293T cells co-transfected with Notch1, vs cells solely expressing Notch1; anti-Myc immunoblot
Experimental: To monitor the effects of MAGP-2 on the processing and S3 cleavage of Notch1, human kidney 293T cells were transiently transfected in 6-well plates with LT-1 liposomes containing 0.5 μg/well of Notch1 (pCS2+mN1FL6MT), 0.5 μg/well Jagged-1 (pCS2+Jag1-6MT), or 1.5 μg/well of MAGP-2 (pcDNA3.1-MAGP-2/Myc-His) in all combinations. Forty-eight h post-transfection, the cells were washed with ice-cold PBS, lysed immediately in Buffer H/1% Triton X-100 [500 μl/well; (Schiemann et al, 2002)], and incubated on ice for 30 min. Afterward, insoluble material was removed by microcentrifugation and 100 μl of the resulting clarified extract was fractionated through 6% SDS-PAGE gels. The fractionated proteins were transferred electrophoretically to nitrocellulose and probed with anti-Myc 9E10 monoclonal antibodies (Covance, Princeton, N.J.) to visual Notch1 cleavage species.
Activation of Notch1 signaling involves three proteolytic processing events, termed S1, S2, and S3, that produce three distinct Notch1 fragments, termed TMIC, NEXT, and NICD, respectively (Mumm et al, 2000). […] The inventors tested this possibility by transiently transfecting human 293T cells with cDNAs encoding Myc-tagged versions of Notch1, Jagged-1, and MAGP-2 in all combinations, and subsequently monitored changes in NICD production and accumulation by immunoblot analyses using anti-Myc monoclonal antibodies. […]

T1 sequence (Q01705 19-2531): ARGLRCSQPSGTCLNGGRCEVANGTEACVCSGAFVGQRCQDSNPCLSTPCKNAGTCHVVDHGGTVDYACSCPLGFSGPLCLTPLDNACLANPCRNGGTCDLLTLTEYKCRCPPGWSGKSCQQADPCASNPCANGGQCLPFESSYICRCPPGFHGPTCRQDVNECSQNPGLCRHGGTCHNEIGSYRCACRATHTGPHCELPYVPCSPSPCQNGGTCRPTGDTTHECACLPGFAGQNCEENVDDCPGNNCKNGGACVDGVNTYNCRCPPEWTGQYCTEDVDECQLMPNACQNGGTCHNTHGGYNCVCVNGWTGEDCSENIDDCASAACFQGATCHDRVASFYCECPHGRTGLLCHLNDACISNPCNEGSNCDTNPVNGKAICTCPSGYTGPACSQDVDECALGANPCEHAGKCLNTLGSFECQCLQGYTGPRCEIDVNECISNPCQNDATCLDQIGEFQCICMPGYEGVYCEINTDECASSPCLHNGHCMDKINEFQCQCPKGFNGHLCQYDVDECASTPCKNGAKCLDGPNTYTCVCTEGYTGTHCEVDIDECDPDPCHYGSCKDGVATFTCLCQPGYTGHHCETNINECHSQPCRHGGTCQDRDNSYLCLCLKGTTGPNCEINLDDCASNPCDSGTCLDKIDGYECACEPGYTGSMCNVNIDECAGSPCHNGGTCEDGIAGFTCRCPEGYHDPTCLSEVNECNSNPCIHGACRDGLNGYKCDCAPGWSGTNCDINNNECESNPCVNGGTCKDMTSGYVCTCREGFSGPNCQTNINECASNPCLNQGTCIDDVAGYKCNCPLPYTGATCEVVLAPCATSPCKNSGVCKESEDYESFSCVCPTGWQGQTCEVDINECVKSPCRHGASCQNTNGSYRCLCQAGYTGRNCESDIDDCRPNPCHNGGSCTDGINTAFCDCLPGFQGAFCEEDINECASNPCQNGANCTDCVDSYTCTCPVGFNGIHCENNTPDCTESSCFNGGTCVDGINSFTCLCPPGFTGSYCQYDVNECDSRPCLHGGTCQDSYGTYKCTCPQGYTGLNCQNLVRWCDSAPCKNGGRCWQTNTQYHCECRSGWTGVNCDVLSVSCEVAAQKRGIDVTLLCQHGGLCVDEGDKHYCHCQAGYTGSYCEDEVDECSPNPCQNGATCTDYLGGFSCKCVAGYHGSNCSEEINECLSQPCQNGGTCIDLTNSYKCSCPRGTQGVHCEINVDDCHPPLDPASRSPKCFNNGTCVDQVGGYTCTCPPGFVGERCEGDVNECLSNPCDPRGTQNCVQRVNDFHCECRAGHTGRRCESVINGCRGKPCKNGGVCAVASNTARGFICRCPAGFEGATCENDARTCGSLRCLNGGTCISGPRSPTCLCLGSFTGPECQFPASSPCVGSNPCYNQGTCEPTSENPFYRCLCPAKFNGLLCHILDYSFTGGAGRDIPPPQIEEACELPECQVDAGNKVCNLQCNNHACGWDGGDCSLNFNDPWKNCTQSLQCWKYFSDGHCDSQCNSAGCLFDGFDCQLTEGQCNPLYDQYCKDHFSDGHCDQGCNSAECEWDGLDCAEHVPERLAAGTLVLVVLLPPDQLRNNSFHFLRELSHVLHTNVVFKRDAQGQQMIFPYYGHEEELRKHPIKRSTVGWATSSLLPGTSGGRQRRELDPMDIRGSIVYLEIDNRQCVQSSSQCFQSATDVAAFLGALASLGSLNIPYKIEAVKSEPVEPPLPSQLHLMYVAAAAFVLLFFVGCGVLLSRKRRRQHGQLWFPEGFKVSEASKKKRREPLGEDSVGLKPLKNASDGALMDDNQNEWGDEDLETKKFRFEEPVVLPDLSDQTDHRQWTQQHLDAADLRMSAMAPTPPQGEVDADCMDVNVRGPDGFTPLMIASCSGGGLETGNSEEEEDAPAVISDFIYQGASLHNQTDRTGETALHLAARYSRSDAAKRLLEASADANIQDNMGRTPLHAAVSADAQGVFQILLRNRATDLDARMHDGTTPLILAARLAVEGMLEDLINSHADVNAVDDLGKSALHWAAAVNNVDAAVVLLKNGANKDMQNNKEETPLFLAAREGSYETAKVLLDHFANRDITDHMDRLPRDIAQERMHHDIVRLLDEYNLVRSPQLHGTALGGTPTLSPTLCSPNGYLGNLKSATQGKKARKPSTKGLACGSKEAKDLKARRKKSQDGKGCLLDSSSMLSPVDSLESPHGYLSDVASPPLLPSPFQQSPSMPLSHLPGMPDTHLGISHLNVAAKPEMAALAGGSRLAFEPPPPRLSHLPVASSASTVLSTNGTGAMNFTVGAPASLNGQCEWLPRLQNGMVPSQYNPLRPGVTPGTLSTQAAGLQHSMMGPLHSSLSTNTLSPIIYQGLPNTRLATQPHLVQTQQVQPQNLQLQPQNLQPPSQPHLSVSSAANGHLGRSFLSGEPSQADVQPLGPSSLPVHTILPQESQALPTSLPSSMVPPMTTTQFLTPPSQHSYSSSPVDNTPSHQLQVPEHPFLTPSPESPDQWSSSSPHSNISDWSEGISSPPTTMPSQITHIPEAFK

B1: Jagged-1: Notch1 ligand; Myc-tagged murine Jagged-1 cDNA transiently transfected (protein)
chain: QFELEILSMQNVNGELQNGNCCGGVRNPGDRKCTRDECDTYFKVCLKEYQSRVTAGGPCSFGSGSTPVIGGNTFNLKASRGNDRNRIVLPFSFAWPRSYTLLVEAWDSSNDTIQPDSIIEKASHSGMINPSRQWQTLKQNTGIAHFEYQIRVTCDDHYYGFGCNKFCRPRDDFFGHYACDQNGNKTCMEGWMGPDCNKAICRQGCSPKHGSCKLPGDCRCQYGWQGLYCDKCIPHPGCVHGTCNEPWQCLCETNWGGQLCDKDLNYCGTHQPCLNRGTCSNTGPDKYQCSCPEGYSGPNCEIAEHACLSDPCHNRGSCKETSSGFECECSPGWTGPTCSTNIDDCSPNNCSHGGTCQDLVNGFKCVCPPQWTGKTCQLDANECEAKPCVNARSCKNLIASYYCDCLPGWMGQNCDININDCLGQCQNDASCRDLVNGYRCICPPGYAGDHCERDIDECASNPCLNGGHCQNEINRFQCLCPTGFSGNLCQLDIDYCEPNPCQNGAQCYNRASDYFCKCPEDYEGKNCSHLKDHCRTTTCEVIDSCTVAMASNDTPEGVRYISSNVCGPHGKCKSQSGGKFTCDCNKGFTGTYCHENINDCESNPCKNGGTCIDGVNSYKCICSDGWEGAHCENNINDCSQNPCHYGGTCRDLVNDFYCDCKNGWKGKTCHSRDSQCDEATCNNGGTCYDEVDTFKCMCPGGWEGTTCNIARNSSCLPNPCHNGGTCVVNGDSFTCVCKEGWEGPICTQNTNDCSPHPCYNSGTCVDGDNWYRCECAPGFAGPDCRININECQSSPCAFGATCVDEINGYQCICPPGHSGAKCHEVSGRSCITMGRVILDGAKWDDDCNTCQCLNGRVACSKVWCGPRPCRLHKSHNECPSGQSCIPVLDDQCFVRPCTGVGECRSSSLQPVKTKCTSDSYYQDNCANITFTFNKEMMSPGLTTEHICSELRNLNILKNVSAEYSIYIACEPSLSANNEIHVAISAEDIRDDGNPVKEITDKIIDLVSKRDGNSSLIAAVAEVRVQRRPLKNRTDFLVPLLSSVLTVAWVCCLVTAFYWCVRKRRKPSSHTHSAPEDNTTNNVREQLNQIKNPIEKHGANTVPIKDYENKNSKMSKIRTHNSEVEEDDMDKHQQKVRFAKQPVYTLVDREEKAPSGTPTKHPNWTNKQDNRDLESAQSLNRMEYIV
modifications: left off: small tags and cut ends
notes: Notch1 ligand; Myc-tagged murine Jagged-1 cDNA transiently transfected
Notch1 processing and production of NICD: significantly enhanced
